Data reported in article PMC4477937.
Like-named read-outs stand apart in the source and are kept apart here.

Assays:
[1] = molecular target: TNF-α (Homo sapiens) (UniProt P01375); settings: cited from earlier work
[2] = molecular target: TGF-β2 (Homo sapiens) (UniProt P61812); settings: cited from earlier work
[3] = molecular target: TGF-β1 (Homo sapiens) (UniProt P01137); settings: cited from earlier work
[4] = molecular target: TNF-α (Homo sapiens) (UniProt P01375); settings: cited from earlier work; remark: listed apart in the source
[5] = molecular target: TGF-β2 (Homo sapiens) (UniProt P61812); settings: cited from earlier work; remark: listed apart in the source
[6] = molecular target: TGF-β1 (Homo sapiens) (UniProt P01137); settings: cited from earlier work; remark: listed apart in the source
[7] = molecular target: lipoprotein receptors (on SH-SY5Y cells) (human (endogenous in SH-SY5Y)); experiment: flow cytometry on cells; SH-SY5Y cells detached with EDTA, in Hank's binding buffer, steps of 30 min at 4°C: RAP (8 μM) or buffer alone, then α2M (100 nM), rabbit anti-α2M, anti-rabbit IgG-FITC; viable cells gated by propidium iodide; α2M preparations stored at 4°C or -20°C for 10 days

Sequence of glutathione-S-transferase-RAP (receptor-associated protein) (P30533 35-357): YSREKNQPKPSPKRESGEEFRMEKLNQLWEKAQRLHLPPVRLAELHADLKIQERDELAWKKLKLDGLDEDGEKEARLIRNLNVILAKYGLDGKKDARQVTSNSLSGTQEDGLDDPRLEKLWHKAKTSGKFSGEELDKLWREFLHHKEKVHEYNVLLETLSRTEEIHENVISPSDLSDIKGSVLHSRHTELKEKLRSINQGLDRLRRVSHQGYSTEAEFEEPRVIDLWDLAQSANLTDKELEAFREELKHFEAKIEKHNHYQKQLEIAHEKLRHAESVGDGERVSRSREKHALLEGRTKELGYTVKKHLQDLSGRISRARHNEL
Sequence of alpha-2-macroglobulin (transformed, α2M*) (P01023 24-1474): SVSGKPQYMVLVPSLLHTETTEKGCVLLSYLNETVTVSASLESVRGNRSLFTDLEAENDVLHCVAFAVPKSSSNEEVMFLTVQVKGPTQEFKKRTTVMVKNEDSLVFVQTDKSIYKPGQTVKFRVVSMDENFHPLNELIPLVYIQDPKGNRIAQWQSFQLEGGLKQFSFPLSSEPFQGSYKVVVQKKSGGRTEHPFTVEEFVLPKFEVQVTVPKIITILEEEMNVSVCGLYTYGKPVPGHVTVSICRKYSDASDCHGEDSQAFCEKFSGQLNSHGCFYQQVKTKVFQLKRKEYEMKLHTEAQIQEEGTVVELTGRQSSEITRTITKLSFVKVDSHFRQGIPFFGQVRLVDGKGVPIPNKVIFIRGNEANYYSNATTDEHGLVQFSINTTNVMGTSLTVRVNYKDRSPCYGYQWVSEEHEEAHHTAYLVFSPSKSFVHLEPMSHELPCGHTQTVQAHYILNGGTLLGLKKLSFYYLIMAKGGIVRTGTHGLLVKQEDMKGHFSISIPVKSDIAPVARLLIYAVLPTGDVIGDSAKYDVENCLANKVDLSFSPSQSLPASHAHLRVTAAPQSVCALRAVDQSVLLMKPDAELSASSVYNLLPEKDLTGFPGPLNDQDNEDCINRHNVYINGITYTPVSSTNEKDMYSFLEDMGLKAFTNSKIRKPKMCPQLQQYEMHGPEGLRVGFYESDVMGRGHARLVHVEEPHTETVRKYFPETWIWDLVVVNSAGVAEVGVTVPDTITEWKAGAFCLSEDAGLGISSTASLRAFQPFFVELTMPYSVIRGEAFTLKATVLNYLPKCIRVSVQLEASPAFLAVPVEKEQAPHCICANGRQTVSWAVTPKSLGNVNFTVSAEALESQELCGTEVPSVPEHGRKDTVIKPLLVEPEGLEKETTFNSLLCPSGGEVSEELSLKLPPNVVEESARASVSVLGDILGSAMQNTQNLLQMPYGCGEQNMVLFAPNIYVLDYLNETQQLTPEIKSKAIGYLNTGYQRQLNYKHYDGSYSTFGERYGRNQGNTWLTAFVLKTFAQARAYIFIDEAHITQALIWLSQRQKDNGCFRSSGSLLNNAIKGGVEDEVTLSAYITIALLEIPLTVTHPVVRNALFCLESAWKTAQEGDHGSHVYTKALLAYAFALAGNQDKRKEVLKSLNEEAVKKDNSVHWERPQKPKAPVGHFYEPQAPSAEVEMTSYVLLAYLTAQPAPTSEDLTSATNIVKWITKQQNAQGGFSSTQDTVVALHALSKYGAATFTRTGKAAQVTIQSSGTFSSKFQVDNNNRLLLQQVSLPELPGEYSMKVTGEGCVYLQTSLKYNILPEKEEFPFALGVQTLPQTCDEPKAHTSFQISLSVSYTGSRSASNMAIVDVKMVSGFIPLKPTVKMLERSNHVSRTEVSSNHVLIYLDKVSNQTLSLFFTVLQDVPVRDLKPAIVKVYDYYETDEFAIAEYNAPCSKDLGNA
Sequence of alpha-2-macroglobulin (native) (P01023 24-1474): as above
Sequence of TNF-α (Homo sapiens) (P01375 77-233): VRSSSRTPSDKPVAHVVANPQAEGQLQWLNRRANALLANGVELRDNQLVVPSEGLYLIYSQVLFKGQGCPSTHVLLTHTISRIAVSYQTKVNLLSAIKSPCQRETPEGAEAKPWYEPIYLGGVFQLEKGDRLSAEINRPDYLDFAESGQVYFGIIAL
Sequence of TGF-β1 (Homo sapiens) (P01137 279-390): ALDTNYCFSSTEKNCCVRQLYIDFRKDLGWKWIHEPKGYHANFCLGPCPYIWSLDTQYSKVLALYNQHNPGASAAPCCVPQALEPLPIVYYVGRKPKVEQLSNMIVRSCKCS
Sequence of TGF-β2 (Homo sapiens) (P61812 303-414): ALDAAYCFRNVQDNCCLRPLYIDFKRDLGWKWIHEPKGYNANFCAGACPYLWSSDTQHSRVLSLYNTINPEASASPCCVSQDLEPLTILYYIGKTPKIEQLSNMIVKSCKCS

## alpha-2-macroglobulin (native) (from UniProt P01023)
[1]
  Kd: > 1270 nM
[2]
  Kd: 11 nM
[3]
  Kd: 330 nM

## alpha-2-macroglobulin (transformed, α2M*) (from UniProt P01023)
[4]
  Kd: > 750 nM
[5]
  Kd: 13 nM
[6]
  Kd: 80 nM

## glutathione-S-transferase-RAP (receptor-associated protein) (from UniProt P30533 35-357) (natural protein)
[7]
  percent of the cell surface binding of the frozen α2M preparations inhibited by RAP: 20 to 50%
  percent of the cell surface binding of α2M inhibited by RAP (α2M in PBS/Az at -20°C; α2M in phosphate buffer with 100 mM NaCl at -20°C after rapid freezing): 20%
